Tests used:
omalizumab = target: T1, omalizumab; test: phage ELISA
T1 construct: Used as irrelevant coated protein; also called irrelevant Fc-containing protein; not shown: the constant regions

[1] = target: T2, human Tie2 ECD5 (extracellular domain without the FN3 domains; Ig1, Ig2, EGF and Ig3 domains) (human, UniProt Q02763 23-442); test: ELISA: human Tie2 ECD5 construct immobilized, serial dilutions of IgG, anti-huFc-HRP
T2 construct: whole entry named; also called huECD5; hECD5; not shown: C-terminal carrier of the coated construct (hIgG1 Fc or Flag tag)
Description: (§1) Plates were washed and detected with anti-huFC-conjugated HRP secondary antibody using the methods above.

rat Tie2ECD.flag = target: T3, rat Tie2ECD.flag (rat, UniProt A0ABK0L6J5 19-740); test: Biacore, hIgG captured, 25C
T3 construct: extracellular domain; also called rTie2.flag; not shown: C-terminal Flag tag
Protocol: (§2) Monovalent affinities of selected anti-Tie2 hIgGs were determined using a Biacore T200 instrument (GE Life Sciences). Anti-humanFc was covalently immobilized on a Series S CM5 Biacore sensor chip to enable non-covalent capture of anti-Tie2 antibodies and binding of human or rat Tie2ECD.flag was monitored in real time at 25° C. using a multi-cycle kinetics experiment format. Between cycles, the surface was regenerated with 3 M MgCl₂. Monovalent affinities were determined by kinetic analysis, using Biacore Evaluation Software (GE Life Sciences) to fit a 1:1 binding model to the data.

human Tie2ECD.flag = target: T4, human Tie2ECD.flag (human, UniProt Q02763 23-748); test: Biacore, hIgG captured, 25C
T4 construct: also called hTie2.flag; not shown: C-terminal Flag tag
Protocol: as §2

mouse Tie2 ECD5 = target: T5, mouse Tie2 ECD5 (mouse, UniProt Q02858 23-442, limits assumed); test: ELISA: mouse Tie2 ECD5 construct immobilized, serial dilutions of IgG, anti-huFc-HRP
T5 construct: domain: ECD5 (Ig1, Ig2, EGF and Ig3 domains); also called mECD5
Description: as §1

human Tie1 = target: T6, human Tie1 (human, UniProt P35590 22-759); test: ELISA: human Tie1 immobilized, serial dilutions of IgG, anti-huFc-HRP
T6 construct: extracellular domain
T6 sequence (looked up): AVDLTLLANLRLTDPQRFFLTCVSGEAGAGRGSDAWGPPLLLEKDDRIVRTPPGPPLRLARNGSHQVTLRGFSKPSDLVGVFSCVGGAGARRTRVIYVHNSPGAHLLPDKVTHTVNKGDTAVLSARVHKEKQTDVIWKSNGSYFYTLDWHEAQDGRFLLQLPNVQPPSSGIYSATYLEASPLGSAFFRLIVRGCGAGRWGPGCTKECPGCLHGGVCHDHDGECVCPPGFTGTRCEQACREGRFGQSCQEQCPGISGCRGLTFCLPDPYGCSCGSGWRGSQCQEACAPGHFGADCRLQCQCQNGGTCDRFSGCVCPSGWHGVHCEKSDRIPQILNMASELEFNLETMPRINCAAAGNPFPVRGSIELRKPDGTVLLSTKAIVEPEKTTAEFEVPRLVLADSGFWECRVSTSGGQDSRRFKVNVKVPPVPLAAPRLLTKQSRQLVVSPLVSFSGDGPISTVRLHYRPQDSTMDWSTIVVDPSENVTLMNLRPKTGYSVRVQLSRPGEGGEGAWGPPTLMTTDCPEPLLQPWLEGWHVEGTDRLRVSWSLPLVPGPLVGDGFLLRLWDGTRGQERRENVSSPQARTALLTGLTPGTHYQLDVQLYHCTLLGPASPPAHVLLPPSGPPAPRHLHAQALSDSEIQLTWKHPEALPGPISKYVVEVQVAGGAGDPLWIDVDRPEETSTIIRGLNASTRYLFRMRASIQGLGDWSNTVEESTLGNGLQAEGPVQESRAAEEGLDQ
Description: as §1
The binding ELISA was also used with immobilized Tie1 protein to assess Tie1 binding.

[2] = target: T7, mouse Tie2 full extracellular domain fused to mIgG2a Fc (mouse, UniProt Q02858 23-746); test: phage ELISA
T7 construct: extracellular domain; also called mFull.Fc; not shown: Fc region of mIgG2a, fused at the C-terminus
Protocol: (§3) Clones from the fourth round were screened for Tie2 binding and specificity by ELISA. Screening ELISAs were carried out by coating the wells of a 96-well microtiter plate with Tie2 protein or irrelevant protein at 65 ul per well (1 ug/ml in coating buffer) at 4° C. overnight. In a 96-tube plate, colonies from the fourth round were grown overnight at 37° C. in 400 ul 2YT media with 50 ug/ml carbenicillin and helper phage K07. The plate was spun down at 3000 rpm for 10 min. 30 ul of the culture supernatant was added with 60 ul of ELISA buffer (PBS with 0.5% BSA and 0.05% Tween20) to the Tie2-coated plate and incubated at room temperature for 1 hr. Plates were washed with PBS—0.05% Tween20 and 100 ul/well of horseradish peroxidase (HRP)-conjugated anti-M13 antibody (1/5000 dilution in PBS plus 0.5% BSA and 0.05% Tween20) at room temperature for 30 min (Sidhu et al., supra). The wells were washed with PBS—0.05% Tween20 prior to 100 ul/well of a 1:1 ratio of 3,3′,5,5′-tetramethylbenzidine (TMB) peroxidase substrate and Peroxidase Solution B (H₂O₂) ((Kirkegaard-Perry Laboratories (Gaithersburg, Md.)) being added per well and incubated for 5 min at room temperature. The reaction was stopped by adding 100 ul 1M phosphoric Acid (H₃PO₄) per well and the OD of wells was determined using a standard ELISA plate reader at 450 nm.

[3] = target: T8, mouse Tie2 full extracellular domain (mouse, UniProt Q02858 23-746); test: phage ELISA
T8 construct: extracellular domain; also called mFullECD
Protocol: as §3

T4 sequence (Q02763 23-748 limits assumed): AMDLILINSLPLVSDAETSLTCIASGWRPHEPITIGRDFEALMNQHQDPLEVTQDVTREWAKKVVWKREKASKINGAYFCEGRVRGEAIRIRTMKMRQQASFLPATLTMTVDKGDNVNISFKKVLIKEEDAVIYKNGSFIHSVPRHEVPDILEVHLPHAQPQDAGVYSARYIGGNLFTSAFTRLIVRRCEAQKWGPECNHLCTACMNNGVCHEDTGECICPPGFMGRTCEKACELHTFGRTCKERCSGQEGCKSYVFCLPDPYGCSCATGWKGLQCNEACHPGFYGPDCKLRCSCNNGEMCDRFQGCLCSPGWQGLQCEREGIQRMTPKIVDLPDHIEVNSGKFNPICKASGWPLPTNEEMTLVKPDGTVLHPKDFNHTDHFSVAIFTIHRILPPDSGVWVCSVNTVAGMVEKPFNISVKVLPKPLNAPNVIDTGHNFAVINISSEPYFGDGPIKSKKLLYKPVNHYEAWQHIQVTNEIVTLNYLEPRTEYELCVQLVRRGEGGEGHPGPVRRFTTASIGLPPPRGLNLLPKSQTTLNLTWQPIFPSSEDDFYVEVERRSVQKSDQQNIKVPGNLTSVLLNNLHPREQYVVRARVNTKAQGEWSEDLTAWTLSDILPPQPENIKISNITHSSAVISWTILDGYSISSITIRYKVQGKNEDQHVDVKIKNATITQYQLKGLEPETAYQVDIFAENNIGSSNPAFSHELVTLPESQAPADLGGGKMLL
T5 sequence (Q02858 23-442 limits assumed): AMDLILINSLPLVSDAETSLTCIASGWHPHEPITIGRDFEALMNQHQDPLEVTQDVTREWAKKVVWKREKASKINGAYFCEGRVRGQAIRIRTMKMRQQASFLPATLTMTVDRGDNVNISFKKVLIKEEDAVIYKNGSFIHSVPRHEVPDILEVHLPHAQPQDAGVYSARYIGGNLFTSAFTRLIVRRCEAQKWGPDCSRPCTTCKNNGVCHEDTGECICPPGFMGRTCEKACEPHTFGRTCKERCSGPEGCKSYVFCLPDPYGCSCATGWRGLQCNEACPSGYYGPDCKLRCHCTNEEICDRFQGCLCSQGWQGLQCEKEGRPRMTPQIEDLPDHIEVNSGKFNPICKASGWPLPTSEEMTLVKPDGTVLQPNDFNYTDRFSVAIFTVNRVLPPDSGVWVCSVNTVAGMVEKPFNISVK
T2 sequence (Q02763 23-442 limits assumed): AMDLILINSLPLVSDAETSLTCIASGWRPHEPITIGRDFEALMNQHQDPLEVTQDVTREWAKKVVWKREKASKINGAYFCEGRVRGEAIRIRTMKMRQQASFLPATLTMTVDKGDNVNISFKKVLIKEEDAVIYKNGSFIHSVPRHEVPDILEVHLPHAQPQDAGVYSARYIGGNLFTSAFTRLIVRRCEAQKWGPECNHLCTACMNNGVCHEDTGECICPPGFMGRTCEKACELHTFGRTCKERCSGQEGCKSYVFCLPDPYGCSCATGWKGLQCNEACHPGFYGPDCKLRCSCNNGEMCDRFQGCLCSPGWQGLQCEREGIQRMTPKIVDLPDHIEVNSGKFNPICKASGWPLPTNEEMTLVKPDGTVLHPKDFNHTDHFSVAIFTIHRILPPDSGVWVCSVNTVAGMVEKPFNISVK
T8 sequence (Q02858 23-746): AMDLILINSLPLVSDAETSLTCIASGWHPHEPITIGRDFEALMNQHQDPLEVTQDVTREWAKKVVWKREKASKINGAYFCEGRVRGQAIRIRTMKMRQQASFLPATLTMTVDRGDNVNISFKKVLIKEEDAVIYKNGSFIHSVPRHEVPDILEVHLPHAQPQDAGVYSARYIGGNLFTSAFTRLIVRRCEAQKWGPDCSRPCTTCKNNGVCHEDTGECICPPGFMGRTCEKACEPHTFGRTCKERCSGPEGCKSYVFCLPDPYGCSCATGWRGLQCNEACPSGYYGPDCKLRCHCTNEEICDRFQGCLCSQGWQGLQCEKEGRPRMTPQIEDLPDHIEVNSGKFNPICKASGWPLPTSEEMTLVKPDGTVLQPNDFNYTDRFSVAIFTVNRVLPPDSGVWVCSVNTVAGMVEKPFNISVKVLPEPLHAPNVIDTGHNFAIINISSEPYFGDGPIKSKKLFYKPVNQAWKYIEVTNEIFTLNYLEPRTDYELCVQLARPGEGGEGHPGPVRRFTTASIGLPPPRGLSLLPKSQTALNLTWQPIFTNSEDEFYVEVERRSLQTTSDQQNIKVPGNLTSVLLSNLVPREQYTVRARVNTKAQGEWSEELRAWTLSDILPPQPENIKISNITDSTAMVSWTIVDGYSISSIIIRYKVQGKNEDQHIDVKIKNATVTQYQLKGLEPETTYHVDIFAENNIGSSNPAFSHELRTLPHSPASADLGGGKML

B1: Tie2.12 (antibody, IgG1, V domains shown)
VH: EVQLVESGGGLVQPGGSLRLSCAASGFTFSSYWIHWVRQAPGKGLEWVAAISPNDGSTYYADSVKGRFTISADTSKNTAYLQMNSLRAEDTAVYYCARSRYYGQRLVYYVMDYWGQGTLVTVSS
VL: DIQMTQSPSSLSASVGDRVTITCRASQDVSTAVAWYQQKPGKAPKLLIYSASFLYSGVPSRFSGSGSGTDFTLTISSLQPEDFATYYCQQSYTTPPTFGQGTKVEIKR
notes: hIgG1 in later assays; also called Ab12
Does B1 bind (omalizumab)?
Result: no binding

And the “EC50 (read off the curve)” value [1]?
Its value is ~1 nM.

And the Kd (rat Tie2ECD.flag)?
The Kd was 116 nM.

What about the Kd (human Tie2ECD.flag) of the same binder?
The Kd was 52 nM.

What about the “EC50 (read off the curve)” value (mouse Tie2 ECD5) of the same binder?
The value was ~1 nM.

Does B1 bind (human Tie1)?
Result: no binding (tested: 200 nM)

B2: Tie2.38 (antibody, IgG1, V domains shown)
VH: EVQLVESGGGLVQPGGSLRLSCAASGFTFSNSAIHWVRQAPGKGLEWVASITPYNGYTYYADSVKGRFTISADTSKNTAYLQMNSLRAEDTAVYYCARRQSYSYVMDYWGQGTLVTVSS
VL: B1 VL
notes: hIgG1 in later assays; also called Ab38
Does B2 bind (omalizumab)?
Result: no binding

And the Kd (rat Tie2ECD.flag)?
Its Kd is 2200 nM.

And the Kd (human Tie2ECD.flag)?
The Kd was 376 nM.

Does B2 bind [2]?
Result: binds

B3: Tie2.24 (antibody, IgG1, V domains shown)
VH: EVQLVESGGGLVQPGGSLRLSCAASGFTFTSSGISWVRQAPGKGLEWVATINPYGGDTYYADSVKGRFTISADTSKNTAYLQMNSLRAEDTAVYYCARFYRFLSSGMDYWGQGTLVTVSS
VL: B1 VL
notes: hIgG1 in later assays; also called Ab24
Does B3 bind (omalizumab)?
Result: no binding

And the Kd (rat Tie2ECD.flag)?
Its Kd is 2800 nM.

What about the Kd (human Tie2ECD.flag) of the same binder?
Its Kd is 822 nM.

Does B3 bind [3]?
Result: binds

— patent US20210332142A1 (Genentech, published 2021)
